In paper PMC5433770, “Effect of N-terminal region of nuclear Drosophila melanogaster small heat shock protein DmHsp27 on function and quaternary structure” (PLoS ONE, 2017):
Changes are numbered by the printed parent chain. In names and notes the source's numbering stands.

B1: DmHsp27 with deletion of the FGFG motif (29-32) (del_FGFG) (natural protein, Drosophila melanogaster, UniProt P02518 1-213, looked up)
chain: MSIIPLLHLARELDHDYRTDWGHLLEDDVHAHDLFHPRRLLLPNTLGLGRRRYSPYERSHGHHNQMSRRASGGPNALLPAVGKDGFQVCMDVSQFKPNELTVKVVDNTVVVEGKHEEREDGHGMIQRHFVRKYTLPKGFDPNEVVSTVSSDGVLTLKAPPPPSKEQAKSERIVQIQQTGPAHLSVKAPAPEAGDGKAENGSGEKMETSK
notes: DmHsp27 (Hsp27), Drosophila melanogaster, without the four residues F29 to G32 (FGFG); also called deletion FGFG (29–32); DmHsp27Del29-32; source: E. coli BL21 (DE3) pLysS, purified (Ni-NTA, SEC on Superose 6)
B2: Drosophila melanogaster small heat shock protein DmHsp27, wild type (natural protein, UniProt P02518 1-213, looked up)
chain: MSIIPLLHLARELDHDYRTDWGHLLEDDFGFGVHAHDLFHPRRLLLPNTLGLGRRRYSPYERSHGHHNQMSRRASGGPNALLPAVGKDGFQVCMDVSQFKPNELTVKVVDNTVVVEGKHEEREDGHGMIQRHFVRKYTLPKGFDPNEVVSTVSSDGVLTLKAPPPPSKEQAKSERIVQIQQTGPAHLSVKAPAPEAGDGKAENGSGEKMETSK
notes: DmHsp27 (Hsp27), Drosophila melanogaster, wild-type cDNA; also called DmHsp27WT; Drosophila melanogaster Hsp27; source: E. coli BL21 (DE3) pLysS, purified (Ni-NTA, SEC on Superose 6)
B3: DmHsp27 S75A (natural protein, Drosophila melanogaster, UniProt P02518 1-213, looked up)
chain: B2 chain with S75A
notes: DmHsp27 (Hsp27), Drosophila melanogaster, with S75A; source: E. coli BL21 (DE3) pLysS, purified (Ni-NTA, SEC on Superose 6)
B4: DmHsp27 S75D (natural protein, Drosophila melanogaster, UniProt P02518 1-213, looked up)
chain: B2 chain with S75D
notes: DmHsp27 (Hsp27), Drosophila melanogaster, with S75D; also called phosphomimetic mutant; source: E. coli BL21 (DE3) pLysS, purified (Ni-NTA, SEC on Superose 6)
B5: DmHsp27 S58A (natural protein, Drosophila melanogaster, UniProt P02518 1-213, looked up)
chain: B2 chain with S58A
notes: DmHsp27 (Hsp27), Drosophila melanogaster, with S58A; source: E. coli BL21 (DE3) pLysS, purified (Ni-NTA, SEC on Superose 6)
B6: DmHsp27 F29A (natural protein, Drosophila melanogaster, UniProt P02518 1-213, looked up)
chain: B2 chain with F29A
notes: DmHsp27 (Hsp27), Drosophila melanogaster, with F29A; source: E. coli BL21 (DE3) pLysS, purified (Ni-NTA, SEC on Superose 6)
B7: DmHsp27 F31A (natural protein, Drosophila melanogaster, UniProt P02518 1-213, looked up)
chain: B2 chain with F31A
notes: DmHsp27 (Hsp27), Drosophila melanogaster, with F31A; source: E. coli BL21 (DE3) pLysS, purified (Ni-NTA, SEC on Superose 6)
B8: DmHsp27 G32R (natural protein, Drosophila melanogaster, UniProt P02518 1-213, looked up)
chain: B2 chain with G32R
notes: DmHsp27 (Hsp27), Drosophila melanogaster, with G32R; source: E. coli BL21 (DE3) pLysS, purified (Ni-NTA, SEC on Superose 6)
B9: DmHsp27 G32A (natural protein, Drosophila melanogaster, UniProt P02518 1-213, looked up)
chain: B2 chain with G32A
notes: DmHsp27 (Hsp27), Drosophila melanogaster, with G32A; source: E. coli BL21 (DE3) pLysS, purified (Ni-NTA, SEC on Superose 6)
B10: DmHsp27 G30A (natural protein, Drosophila melanogaster, UniProt P02518 1-213, looked up)
chain: B2 chain with G30A
notes: DmHsp27 (Hsp27), Drosophila melanogaster, with G30A; source: E. coli BL21 (DE3) pLysS, purified (Ni-NTA, SEC on Superose 6)
B11: DmHsp27 F29Y (natural protein, Drosophila melanogaster, UniProt P02518 1-213, looked up)
chain: B2 chain with F29Y
notes: DmHsp27 (Hsp27), Drosophila melanogaster, with F29Y; source: E. coli BL21 (DE3) pLysS, purified (Ni-NTA, SEC on Superose 6)
B12: DmHsp27 S58D (natural protein, Drosophila melanogaster, UniProt P02518 1-213, looked up)
chain: B2 chain with S58D
notes: DmHsp27 (Hsp27), Drosophila melanogaster, with S58D; also called phosphomimetic mutant; source: E. coli BL21 (DE3) pLysS, purified (Ni-NTA, SEC on Superose 6)
B13: DmHsp27 S58/75D (natural protein, Drosophila melanogaster, UniProt P02518 1-213, looked up)
chain: B2 chain with S58D, S75D
notes: DmHsp27 (Hsp27), Drosophila melanogaster, with S58D and S75D; also called phosphomimetic mutant; source: E. coli BL21 (DE3) pLysS, purified (Ni-NTA, SEC on Superose 6)
B14: DmHsp27 G30R (natural protein, Drosophila melanogaster, UniProt P02518 1-213, looked up)
chain: B2 chain with G30R
notes: DmHsp27 (Hsp27), Drosophila melanogaster, with G30R; source: E. coli BL21 (DE3) pLysS, purified (Ni-NTA, SEC on Superose 6)
B15: DmHsp27 S58/75A (natural protein, Drosophila melanogaster, UniProt P02518 1-213, looked up)
chain: B2 chain with S58A, S75A
notes: DmHsp27 (Hsp27), Drosophila melanogaster, with S58A and S75A; source: E. coli BL21 (DE3) pLysS, purified (Ni-NTA, SEC on Superose 6)
B16: DmHsp27 F31Y (natural protein, Drosophila melanogaster, UniProt P02518 1-213, looked up)
chain: B2 chain with F31Y
notes: DmHsp27 (Hsp27), Drosophila melanogaster, with F31Y; source: E. coli BL21 (DE3) pLysS, purified (Ni-NTA, SEC on Superose 6)
B17: DmHsp27 with deletion of the first 86 amino acids of the N-terminal region (Del_Nter) (domain or fragment, Drosophila melanogaster, UniProt P02518 87-213, looked up)
chain: KDGFQVCMDVSQFKPNELTVKVVDNTVVVEGKHEEREDGHGMIQRHFVRKYTLPKGFDPNEVVSTVSSDGVLTLKAPPPPSKEQAKSERIVQIQQTGPAHLSVKAPAPEAGDGKAENGSGEKMETSK
notes: DmHsp27 (Hsp27), Drosophila melanogaster, without the first 86 amino acids (N-terminal region); The Del-NTR forward primer carries an ATG before the codon of residue 87, so an added Met probably precedes residue 87 (surmise); also called DmHsp27Del-NTR; source: E. coli BL21 (DE3) pLysS, purified (Ni-NTA, SEC on Superose 6)

Molecular target: the molecule itself
Experiment: native gel or EMSA; 4–12% gradient native Tris-Glycine gel; samples kept and gel run at room temperature (20°C), 150 V, Coomassie blue stain

Row | Protein | binding result
1 | B1 | binds
2 | B2 | binds
3 | B3 | binds
4 | B4 | binds
5 | B5 | binds
6 | B6 | binds
7 | B7 | binds
8 | B8 | binds
9 | B9 | binds
10 | B10 | binds
11 | B11 | binds
12 | B12 | binds
13 | B13 | binds
14 | B14 | binds
15 | B15 | binds
16 | B16 | binds
17 | B17 | binds
